Assay results taken from the nanobody polyreactivity screen of Harvey et al. (2022).

Assay: yeast display, Sf9 membrane polyspecificity reagent, FACS + sequencing; frameworks hold sequencing errors
Procedure, shortened: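 Galactose-induced (36–48 hours) yeast carrying a synthetic nanobody display library were exposed to 10% biotinylated, detergent-solubilized Sf9 membrane reagent at 4 °C for 1 hour. FACS followed streptavidin microbead enrichment, using low and high (top ~1%) gates for expression (anti-HA) and reagent binding (streptavidin). Colony PCR, MiSeq 2 × 250 sequencing and CDR-length filtering followed. Labels for polyreactivity reflect the gate of origin.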

Sequence | polyreactivity (PSR sort gate)
QVQLVESVGGLVQAGGSLRLSSAASGFTIVGNTMGWSRQAPGKERELVASINTNGGSTYYADSVKGRFTISRDNAKNTVYLQINSLKPEDTAVYYCNARSWYPYDYWGQGTQVTVSS | low polyreactivity
QVQLVESVGGLVQAGGSLRLSSAASGRTFRYYTMVWYTQAPGKEREFVAAISSTGGTYYADSVKGRFTISRDNAKNTVYLQMNSLKPEDTAVYYCAATFIQVVVNVQMYDYDYWGQGTQVTVSS | low polyreactivity
QVQLVESVGGLVQAGGSLRLTCAASGSIFKYYDMGWYRQAPGTERELVAAISSNGGRTYYADSVKGRFTISRDNAKNTDYLQMNSLKPEDTAVYYCARRFRRTGESEYDYWGQGTQVNVSS | high polyreactivity
QVQLVESVGGLVQAGGSLSLSCAASGIIFVPYAMVWYRQAPGKERELVAAISSGGSTDYADSVKGRFTISRDNAKNTVYLQMNSLKPEDTAVYYCNKYYRGIFKAHRDYWGQGTQVTLSS | low polyreactivity
QVQLVESVGGLVQAGGSLSLSCAASGSTLSDNAMGWYRQAPGKERELVAAIRRVGSTNYADSVKGRFTISRDNAKNTVYLQMNSLKPEDTAVYYCAVRHVWPWQGYDYWGQGTQVTVSS | low polyreactivity
QVQLVESVGGLVQAGGTLRLSCAASGSTFNINAMGWYRQAPGKERELVAAISWSGDITYYADSVKGRFTISRDNAKNTVYLQMNSLKPEDTAVYYCNTDDPVNYWYAEYDYWGQGTQVTVSS | low polyreactivity
QVQLVESVGGLVQAGGTLRLSCSASGSTFNVYAMGWYIQATGKERELVAAITRRGGSTYYADSVKGRFTISRDNAKNTVYLQMNSLKPEDTADYYFAARRRLDYYYYNYWGQGTQETVSS | high polyreactivity
QVQLVESVGGLVQAGGTLRLTCAASGSNFKAYAMRWYRQATGKERELVARIRYRGGSTYNADSVKGRFTISRDNAKNTVFLQMNSLKPEETAVYYCAARLSPYHTDRGDYLGQGTQVTVSS | high polyreactivity
QVQLVESVGGLVQAGGTLSLSCAASGFTFRNYAMGWYRQAPRKEREFVAAISRRGGSTYYADSVKGRITISRDNAKNTVYLQINSLKPEDSAVYYCATEPGKQNTYRMDYCGQGTQVTVSS | high polyreactivity
QVQLVESVGGLVQAGVSLRLSGAASGNTFVPYAMGWSRQAPGKESELVAAISLRGGSTYYADSVKGRFTISRDNAKNTVYLQMNSLKPEDTAVYYCAARTFYRPGLAGGYWGQGTQVTVAS | high polyreactivity
QVQLVESVGGLVQARGSLRLSCAASASIFPSYAMGWYIQAPGKERELVAVISWRGGSTYYADSVKGRFTISRDNAKNTVYLQMNRLKPEDTAVYYCAARSWDPKLSTYPFHFNYWGQGTQVTVSS | high polyreactivity
QVQLVESVGGLVQSGGSLRLSCAASGFIFVVYAMGSYRQAPGKERELVATISSGGGTYYADSVKGRFTISRDNAKNTVYLQMNSLKPEDTAVYYCAARRRRLYHFGGNNYWGQGTQVTVSS | high polyreactivity
QVQLVESVGGVVQAGGSLGLSCAASGRPFGRNVMGWYRQAPGKERELVAAISRSGGSTYYADSVKGRFTISRDNAKNTVYFQMNSLKPEDTAVYYCAAYSVGDYYWGQGTQVTVSS | high polyreactivity
QVQLVESVGRLVQAGGSLRLSCAASGSIIRSYTKGWYRQAPGKEWELVAASSGRAGSTYYADSVKGRFTISRDIAKNTVYLQMPGLKPEDTAVYYCAVILGGRAQSYYWGHGTQVTVSS | high polyreactivity
QVQLVESVGRLVQAGGSLRLSCGASGRIFKWYAMGWFRQARGNERELVAAITSRGSTYYADSVKGRFTISRDNAKNTVYLQMNSLKPEDTAVYYCNRYVVHRRDDYWGQGTQVTVSS | high polyreactivity
QVQLVESVGVLVQAGGSLHLSCAASGSTFRYNAIGWYRQAPGKEREVVAAISKRGGSTYYADSVKGRFTISRDNAKNTVYLQMNSLKPEDTAVYYCAASYPSWSTRGESDYWGQGTQVTVSS | high polyreactivity
QVQLVESVLGLVQAGGSLRLICDASGSIFGYNVIGWYRQAPGKERELVAAITGRGDSTYYADSVKGRFTISRDNAKNTVYLQMNSLKPEDTAVYYCAAYPNQSEYYYWGQGTQVTVSS | low polyreactivity
QVQLVESVRGLVQAGGSLRLSCAASGSIFDYNAMGWYREAPGKEREFVASITYSGGSTNYADSVKGRFTISRDNAKNTVYLQMNSLKPEDTAVYYCSKTIGIVWIYYPGARYDYWGQGTQVTVSS | low polyreactivity
QVQLVESVRGLVQAGGTLRLSCAPSGGIFWVYAMGWYRQAPGKERELVAAISNSDTSTSYADSVKGRFTISRVNAKNTVYLQMNSLKPEDTAVYSCNADSPSLSGDYWGQGTQVTVSS | low polyreactivity
QVQLVESVVCLVQAGGSLRLSCAASGSIFRSYAMGWYRQAPGKERELVASISRRGGSTYYADSVKGRFTISRDNAKNTVYLQMNSLKPEDTAVYYCAAVGYNSRVSTTPSEMYYWGQGTQVTVSS | high polyreactivity
QVQLVESVVGLVQAGGSLRLSSAASGGTFSENAMGWYRQAPGKERELVAAITWSVGNTYADSVKGLFTISRDNAKNTVYLQMNSLKPEDTAVYYCAKDFSVPAYDYWGLGTQVTVSS | low polyreactivity
QVQLVESVVGLVQAGRSLRLSCAASGYTFWQYAMGWYRQAPGKERELVATITSRGGSTYYADSVKGRFTISRDTAKNSVYFQMNSLKPEDTAVYYCAARVYYPSTSNAAYGYCGQGTQVTVSS | high polyreactivity

Sequence | polyreactivity (PSR sort gate)
QVQLVESVVGLVQARVSLRLSCASSGFIFRFYTMGWYIQPPGKESEFVPAISWSGTSTYYADSVKGRFTISRDNAKNTVYLQMNSLKPEDTAVYYCAAGYKWKGTVWIMDYWGQGTQVTVSS | high polyreactivity
QVQLVESWGALVQAGGSLRLSCAASRRTFALNAMGWYRQAPGKETELVAAITSSGGSSYYADSVKGRFTISRDIAKNSVYLLMNSLNPVDTAVYYCAADRHYGTEYAYDYWGEGTQVTVSS | low polyreactivity
QVQLVESWGGLVQAAASLRLICDASGRTIRWSAMGWYRPAPGKERELVATITTSGTPSYADSVKGRFTISRDNAKNTVYLQMNSLTPEDTAVYYCAADTYPWGGSSSYDWGQGTQVTVSS | high polyreactivity
QVQLVESWGGLVQAGCRLRLSCAASGRTFLTYVMGWYRQAPGKERELVAAITRGGRTNYADSVKGRFTISRDNAKNTVFLQMNSLKPEDTAVYYCARDDTPRYDYWGQGTQVTVSS | low polyreactivity
QVQLVESWGGLVQAGGSLPLSCAASGFTFVSYAMGWSRQAPGKERELVAAISKRGGSTSYADSVKGRFTISRDNAKNTVYLQMNSLKPEDTAVYYCYKRSYAWSPHVDYWGQGTQVTVSS | high polyreactivity
QVQLVESWGGLVQAGGSLRISCAASGRISYGYAMGWYRQAPGKERELVAAISRSGGTTYYADSVKGRFTISRDNAKNTVYLQMNSLNPEDTAVYYCAAGDAYYTEALPFGDYDYWGQGTQVTVSS | low polyreactivity
QVQLVESWGGLVQAGGSLRLSCAASGFIFTLYAMGWYRQATGKEREFVAAISWSDGSTTYADSVKGRFTISRDNAKTTVYLQMNSLKPEDTAVYYCAAVTSSYIRGLVYHFYYWGQGTQVTVSS | low polyreactivity
QVQLVESWGGLVQAGGSLRLSCAASGFIFYRYAMGWYRQAPGKERELVAVISVSGGSTYADSVKGRFTISRDNAKNTVYLQMNSLKPEDTAVYYCAARRYSYYRVHGTRHDYWGQGTQVTVSS | high polyreactivity
QVQLVESWGGLVQAGGSLRLSCAASGFTFAYNTMGWYRQAPGTEREWVAAISSSGGSTYYADSVKGRFTISRDNAKNTVYLQMNSLKPEDTAVYDCAAPFWRSFWASDYCGQGTQVTVSS | high polyreactivity
QVQLVESWGGLVQAGGSLRLSCAASGFTFDNYPMGWYRQAPGKERELVAAIINSGGSTYYADSVKGRFTISRDNAKNTVYLQMNSLKPEDTAVYYCAARILPFRQWYRTYEYWGQGTQVTVSS | high polyreactivity
QVQLVESWGGLVQAGGSLRLSCAASGFTFNANAMGWYRQAPGKERELVAAISLSGGRTYYADSVKGRFTISRDNEKNTVYLQMNSLKPVDTAVYYCAASPDGSFRRFSRVVSGDYWGQGTQVTVSS | high polyreactivity
QVQLVESWGGLVQAGGSLRLSCAASGITFSNYAMGWYRQAPGKERELVAAISKRGGSTYYADSVKGRFTISRDTAKYTVYLQMNSLKPEDTAVYYCAAAGVRVYVRSVLDYWGQGTQVTVSS | high polyreactivity
QVQLVESWGGLVQAGGSLRLSCAASGLIFKVYAMGWYRQAPGKERELVAAITYSGGSTDYADSVKGRFTISRDNAKNTVYLQMNSLKPEDTAVYYCNVEKVGHVNSYGYDYWGQGTQVTVSS | low polyreactivity
QVQLVESWGGLVQAGGSLRLSCAASGLPSKLMLMVWYRQAPGKERELVAAISSSGGRTYYADSVKGRFTISRDNAKITVYLQMNSLKPEDTAVYYCAAYFPRTLFEFGYWGQGNQVTVSS | high polyreactivity
QVQLVESWGGLVQAGGSLRLSCAASGLTFNYYDMGWYRQAPGKERELVAAISRSGTNTSYADSVKGRFTISRDNAKNTVYLQMNSLKPEDTAVYYCNAAGVYLAAGPYTANFNYNYWGQGTQVTVSS | low polyreactivity
QVQLVESWGGLVQAGGSLRLSCAASGRIFDPYAMGWYRQAPGKERELVATITLRGGITYYADSVKGRFTISRDNAKNTVYLEMNSLKPEDTAVYYCAKKVRYYVRWEYDYWGQGTQVTVSS | low polyreactivity
QVQLVESWGGLVQAGGSLRLSCAASGRIFGRYAMGWYRQAPGKERELVAAIRSTGSTNYADSVKGRFTISRDNAKNTVYLQMNSLKPEDTAVYYCAAYRRRTYAVNKEGGYWGQGTQVTVSS | high polyreactivity
QVQLVESWGGLVQAGGSLRLSCAASGSIFSVYAMGWYRQAPGKERELVAAITSGGGTKYADSLKGRFTISRDNAKNTVYLQMNSLKPEDTAVYYCAAESFSDGSPYNYWGQGTQVTVSS | low polyreactivity
QVQLVESWGGLVQAGGSLRLSCAASGSTFAGYAMGWYRQAPGKERELVAAIDWGGDSTYYADSVKGRFTISRDNAKNTVYLQMNSLKPEDTAVYYCAAYWYSRYDYDYWGQGTQVTVSS | low polyreactivity
QVQLVESWGGLVQAGGSLRLSCAASGSTFGYYAMGWYRRAPGNEMELVAALSSSSSTNYADSVKGRFTISRDNAMNTVYLQMNRLIPEETAVYYCASDPYWLHWTFDYWGQGSQVTVSS | low polyreactivity
QVQLVESWGGLVQAGGSLRLSCAASGSTFRPYAMGWYRQAPGKERELVAAFRSGRTSYADSVKGRFTISRDNAKNTVYLQMNSLKPEDTAVYYCAKASRGGYYWGQGTQVTVSS | high polyreactivity
